Three molecules from PMC10397247 can be followed below.

Experiment [1] has as its target T1, 4H1593-AA.
T1 chain: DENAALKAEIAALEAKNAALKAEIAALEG
Put plainly: two-hybrid library CCmax.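 Also: natural log of median RNA to DNA barcode read ratio; higher means stronger binding.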

In experiment [2] the target is T2, 4H235-AA.
T2 chain: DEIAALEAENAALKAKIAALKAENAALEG
The experiment in a line: two-hybrid library CCmax.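 Also: natural log of median RNA to DNA barcode read ratio; higher means stronger binding.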 Conditions: mean of both orientations.

Experiment [3] deals with T3, 4H3619-AA.
T3 chain: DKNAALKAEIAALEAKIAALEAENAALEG
The experiment in a line: two-hybrid library CCmax.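 Also: natural log of median RNA to DNA barcode read ratio; higher means stronger binding.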 Conditions: mean of both orientations.

Experiment [4] concerns the target T4, 4H2903-AA.
T4 chain: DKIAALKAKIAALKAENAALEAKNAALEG
Put plainly: two-hybrid library CCmax.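 Also: natural log of median RNA to DNA barcode read ratio; higher means stronger binding.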 Conditions: mean of both orientations.

For experiment [5], the target named is T5, 4H446-AA.
T5 chain: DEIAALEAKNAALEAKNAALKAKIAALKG
The experiment in a line: two-hybrid library CCmax.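 Also: natural log of median RNA to DNA barcode read ratio; higher means stronger binding.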 Conditions: mean of both orientations.

Experiment [6] addresses T6, 4H249-AA.
T6 chain: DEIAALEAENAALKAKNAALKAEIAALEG
The experiment in a line: two-hybrid library CCmax.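 Also: natural log of median RNA to DNA barcode read ratio; higher means stronger binding.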 Conditions: mean of both orientations.

Experiment [7] has as its target T7, 4H2947-AA.
T7 chain: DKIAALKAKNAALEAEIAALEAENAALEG
Put plainly: two-hybrid library CCmax. Conditions: mean of both orientations.

Experiment [8] addresses T8, 4H2580-AA.
T8 chain: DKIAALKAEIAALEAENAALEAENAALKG
Put plainly: two-hybrid library CCmax. Conditions: mean of both orientations.

Experiment [9] concerns the target T9, 4H2604-AA.
T9 chain: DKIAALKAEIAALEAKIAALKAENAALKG
Put plainly: two-hybrid library CCmax. Conditions: mean of both orientations.

The target of experiment [10] is T10, 4H3915-AA.
T10 chain: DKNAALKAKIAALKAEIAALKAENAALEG
Put plainly: two-hybrid library CCmax. Conditions: mean of both orientations.

Experiment [11] addresses T11, 4H3777-AA.
T11 chain: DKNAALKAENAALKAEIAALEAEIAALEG
The experiment in a line: two-hybrid library CCmax. Conditions: mean of both orientations.

Experiment [12] deals with T12, 4H380-AA.
T12 chain: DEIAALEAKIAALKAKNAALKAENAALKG
The experiment in a line: two-hybrid library CCmax. Conditions: mean of both orientations.

Experiment [13] addresses T13, 4H1878-AA.
T13 chain: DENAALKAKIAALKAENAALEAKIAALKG
The experiment in a line: two-hybrid library CCmax. Conditions: mean of both orientations.

Experiment [14] has as its target T14, 4H3629-AA.
T14 chain: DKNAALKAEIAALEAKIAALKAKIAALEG
Put plainly: two-hybrid library CCmax. Conditions: mean of both orientations.

Experiment [15] has as its target T15, 4H341-AA.
T15 chain: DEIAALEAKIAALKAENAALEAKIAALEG
Put plainly: two-hybrid library CCmax. Conditions: mean of both orientations.

Experiment [16] addresses T16, 4H3449-AA.
T16 chain: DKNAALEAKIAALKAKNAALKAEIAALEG
Put plainly: two-hybrid library CCmax. Conditions: mean of both orientations.

Experiment [17] concerns the target T17, 4H2621-AA.
T17 chain: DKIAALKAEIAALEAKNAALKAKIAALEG
The experiment in a line: two-hybrid library CCmax. Conditions: mean of both orientations.

The target of experiment [18] is T18, 4H324-AA.
T18 chain: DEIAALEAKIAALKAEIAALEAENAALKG
Put plainly: two-hybrid library CCmax. Conditions: mean of both orientations.

The target in experiment [19] is T19, 4H63-AA.
T19 chain: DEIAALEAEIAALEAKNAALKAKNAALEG
The experiment in a line: two-hybrid library CCmax. Conditions: mean of both orientations.

The target of experiment [20] is T20, 4H2961-AA.
T20 chain: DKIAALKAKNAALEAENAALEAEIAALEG
Put plainly: two-hybrid library CCmax. Conditions: mean of both orientations.

The target in experiment [21] is T21, 4H3094-AA.
T21 chain: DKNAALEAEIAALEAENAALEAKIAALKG
The experiment in a line: two-hybrid library CCmax. Conditions: mean of both orientations.

The target in experiment [22] is T22, 4H432-AA.
T22 chain: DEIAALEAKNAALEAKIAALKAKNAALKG
Put plainly: two-hybrid library CCmax. Conditions: mean of both orientations.

In experiment [23] the target is T23, 4H3049-AA.
T23 chain: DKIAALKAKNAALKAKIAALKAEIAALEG
Put plainly: two-hybrid library CCmax. Conditions: mean of both orientations.

In experiment [24] the target is T24, 4H3974-AA.
T24 chain: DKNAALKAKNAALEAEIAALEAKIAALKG
The experiment in a line: two-hybrid library CCmax. Conditions: mean of both orientations.

In experiment [25] the target is T25, 4H2760-AA.
T25 chain: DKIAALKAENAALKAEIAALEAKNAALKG
The experiment in a line: two-hybrid library CCmax. Conditions: mean of both orientations.

The target in experiment [26] is T26, 4H2774-AA.
T26 chain: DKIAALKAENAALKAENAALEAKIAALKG
Put plainly: two-hybrid library CCmax. Conditions: mean of both orientations.

For experiment [27], the target named is T27, P4bH1.
T27 chain: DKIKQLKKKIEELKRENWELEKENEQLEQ
Put plainly: two-hybrid library CCNG1.

Experiment [28] has as its target T28, P9bH1.
T28 chain: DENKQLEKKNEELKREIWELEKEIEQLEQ
The experiment in a line: two-hybrid library CCNG1.

Experiment [29] addresses T29, P7bH1.
T29 chain: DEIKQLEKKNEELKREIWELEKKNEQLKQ
Put plainly: two-hybrid library CCNG1.

Experiment [30] deals with T30, P3bH1.
T30 chain: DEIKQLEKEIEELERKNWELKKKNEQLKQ
Put plainly: two-hybrid library CCNG1.

Experiment [31] concerns the target T31, P8bH1.
T31 chain: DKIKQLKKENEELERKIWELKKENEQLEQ
The experiment in a line: two-hybrid library CCNG1.

For experiment [32], the target named is T32, P6bH1.
T32 chain: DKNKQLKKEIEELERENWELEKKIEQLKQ
Put plainly: two-hybrid library CCNG1.

Experiment [33] has as its target T33, P5bH1.
T33 chain: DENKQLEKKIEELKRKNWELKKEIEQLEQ
The experiment in a line: two-hybrid library CCNG1.

For experiment [34], the target named is T34, 4H342-bA.
T34 chain: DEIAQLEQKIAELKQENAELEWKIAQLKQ
Put plainly: two-hybrid library CCNG1.

For experiment [35], the target named is T35, 4H496-bA.
T35 chain: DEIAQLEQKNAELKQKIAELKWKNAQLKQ
The experiment in a line: two-hybrid library CCNG1.

Experiment [36] has as its target T36, O3.
T36 chain: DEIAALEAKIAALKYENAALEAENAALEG
Put plainly: two-hybrid library CCNG1.

Experiment [37] deals with T37, 4H3632-bA.
T37 chain: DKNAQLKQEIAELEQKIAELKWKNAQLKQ
Put plainly: two-hybrid library CCNG1.

In experiment [38] the target is T38, 4H48-bA.
T38 chain: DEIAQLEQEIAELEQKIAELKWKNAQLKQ
Put plainly: two-hybrid library CCNG1.

For experiment [39], the target named is T39, 4H918-bN.
T39 chain: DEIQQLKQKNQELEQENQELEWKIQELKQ
Put plainly: two-hybrid library CCNG1.

Experiment [40] has as its target T40, 4H491-bA.
T40 chain: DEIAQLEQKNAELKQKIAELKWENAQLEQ
Put plainly: two-hybrid library CCNG1.

For the molecule DENAALKAEIAALEAKNAALKAEIAALEG [4H1593-AA], the interaction score in [1] is -1.04; in experiment [2] it was 0.603; in experiment [3] it was -1.38; in [4], -0.456; in experiment [5], -1.84; in experiment [6], -1.77. Further, the interaction score in experiment [7] was -1.37; in experiment [8], -0.97; in experiment [9] it was 0.383; in experiment [10], -1.62; in experiment [11] it was -1.54; in experiment [12] it was -1.5. The interaction score was 2.3 in experiment [13]; -0.594 in [14]; 2.13 in [15]; -1.62 in experiment [16]; -0.899 in experiment [17]; -1.58 in [18]. For the same molecule, the interaction score in [19] was -1.97; in [20], -1.89; in experiment [21], 1.88; in experiment [22], -0.391; in [23], -0.661; in experiment [24], -1.15. Further, the interaction score in experiment [25] was -0.517; in experiment [26], -0.0172.
With DEIKQLEKEIEELERKNWELKKKNEQLKQ [P3bH1], the interaction score in experiment [27] is 1.13; in experiment [28] it was -0.408; in experiment [29], -0.271; in experiment [30] it was -0.241; in [31], 0.173; in experiment [32], 0.419. The interaction score in experiment [33] was found to be 1.1.
Regarding DEIAQLEQKIAELKQENAELEWKIAQLKQ [4H342-bA], the interaction score in experiment [34] is 1.64; in [35], 2.13; in experiment [36], -1.6; in [37], 0.725; in [38], 0.0458; in experiment [39] it was -0.0267. In addition, in [40], the interaction score was 1.5.
